The test system of this series is T1, Nc1ncnc2c1ncn2[C@@H]1O[C@H](COP(=O)(O)OP(=O)(O)OP(=O)(O)O)[C@@H](O)[C@H]1O.
T1 construct: made in house; host or cells: Sf9 insect cells, baculovirus, co-infected with Cak1-HA3 (Cdc28-His6); bacteria (MBP-Clb2)
As to the kind of experiment: purified protein, by the assay type. Type of series: biochemical, Saccharomyces cerevisiae. Conditions: other: Cdc28 · MBP-Clb2; pH 7.4; 23.0 °C.

Sequence of Cdc28 · MBP-Clb2 (Saccharomyces cerevisiae S288C) (chain, as listed by the source S288C): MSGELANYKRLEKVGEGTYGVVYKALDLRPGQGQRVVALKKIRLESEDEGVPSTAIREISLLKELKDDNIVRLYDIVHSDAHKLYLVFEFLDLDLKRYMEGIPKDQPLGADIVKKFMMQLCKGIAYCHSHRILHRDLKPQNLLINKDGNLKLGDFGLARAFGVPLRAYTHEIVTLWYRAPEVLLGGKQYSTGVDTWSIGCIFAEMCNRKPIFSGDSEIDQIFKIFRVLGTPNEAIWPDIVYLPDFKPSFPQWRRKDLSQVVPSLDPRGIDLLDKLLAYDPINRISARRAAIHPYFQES

In general, Km refers to the substrate concentration at which the rate is half of its maximum. As a reminder, the kcat is the maximal rate divided by the concentration of active sites. What is called kcat/Km is the second-order rate constant that governs catalysis at low substrate concentration. Regarding “Cdc28 · MBP-Clb2 (Saccharomyces cerevisiae S288C)”, the Michaelis constant (Km) was 35 µM, the catalytic constant (kcat) came to 2.2 s⁻¹ and the kcat/Km stood at 62170 M⁻¹ s⁻¹.

The values are drawn from US20030073218A1, “High affinity inhibitors for target validation and uses thereof” (Princeton University, priority 1999, published 2003).
